Assay results from US20100104577A1 (published 2010).

B1: scFv40.1 (scFv)
scFv: EVQLQQSGADLVKPGASVKLSCTASGFNIKATYMHWVRQRPEQGLEWIGRIDPANGDTKYDPKFQGKATLTVDTSSNTAYLQLSSLTSEDTAVYYCSTLYYREAYWGQGTLVTVSAGGGGSGGGSGGGGSDVVMTQTPLTLSVTIGQPASISCKSSQRLIYSDGKTYLNWLLQRPGQSPKRLIYLVSKLDSGVPDRFTGSGSGTDFTLKISRVEAEDLGVYYCWQGTHFPVTFGAGTKLELKR
notes: VH-linker-VL from mAb40.1; secreted from 293T HEK cells (pSecTag), detected by anti-His and anti-myc; Tested as conditioned medium
B2: scFv42.2 (scFv)
scFv: EVQLQQSGPELVKPGASGKISCKTSGYTFSENTMHWVKQSHGKSLEWIGGINPNTGATYYNQKFKGKATLTVDTSSSTAYLELRSLTSADSAVYYCVRNGLLTLGAMDYWGQGTSVTVSSGGGGSGGGGSGGGGSDVVMTQTPLSLPVSLGDQASISCRSSQSLVHSNGNTYLYWCLQKPGQSPKLLIYKVSSRFSGVPDRFSGSGSGTDFTLKISRVEAEDLGVYFCSQSTHAPLTFGAGTKLELKR
notes: VH-linker-VL from mAb42.2; secreted from 293T HEK cells (pSecTag), detected by anti-His and anti-myc; Tested as conditioned medium; also called anti-Aβ42 specific scFv42.2

What was measured:
Aβ1-40 = biological target: T1, Aβ1-40 (human, UniProt P05067 672-711); test: pulldown of conditioned media of transfected 293T cells with fibrillar Aβ40, western blot with anti-His
T1 construct: domain: Aβ1-40; Used as a soluble peptide (ELISA), as fibrils (fAβ40 pulldown) and as expressed in TgBRI-Aβ40, Tg2576 and CRND8 mice (plasma complexes); also called Aβ40; human Aβ40
T1 sequence (P05067 672-711 limits assumed): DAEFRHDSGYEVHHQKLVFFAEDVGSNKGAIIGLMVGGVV
Protocol: (§1) Fibrillar Aβ pulldown assays. One mL of conditioned media from 293T HEK cells transiently transfected with pSecTag palsmids encoding the anti-Aβ scFv was incubated with 10 μg of fibrillar Aβ40 or Aβ42 (fAβ) at 4° C. for 1 hour. The fibrils were then spun down and resuspended in SDS-PAGE loading buffer. The presence of scFv was determined by western blot with rabbit anti-His (Bethyl). To determine the Aβ40 binding properties of scFv secreted into the media, capture ELISA was used with Aβ40 peptide as capture and anti-myc-HRP, 1:2000, as detection.
(§2) Prior to testing the effects of the scFv in vivo, the anti-Aβ scFvs expressed from 293T cells were characterized.

Aβ1-42 = biological target: T2, Aβ1-42 (human, UniProt P05067 672-713); test: pulldown of conditioned media of transfected 293T cells with fibrillar Aβ42, western blot with anti-His
T2 construct: domain: Aβ1-42; also called Aβ42; fAβ42 (fibrillar form in the pulldown)
T2 sequence (P05067 672-713 limits assumed): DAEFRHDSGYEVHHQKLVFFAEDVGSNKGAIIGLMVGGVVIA
Protocol: as §1, §2

Binder	binding result (Aβ1-40)	binding result (Aβ1-42)
B1	binds	–
B2	no binding	binds
